{"source": "paper doi:10.1101/2020.08.17.254201", "key": {"[1]": {"target": "SiEsaA_(328-685), fragment of Streptococcus intermedius B196 EsaA (Streptococcus intermedius B196)", "experiment": "SEC-MALS"}, "[2]": {"target": "SgEsaA_(332-725) (Streptococcus gallolyticus ATCC 43143)", "experiment": "SEC-MALS"}}}
{"substance": "SiEsaA_(328-685), fragment of Streptococcus intermedius B196 EsaA (domain or fragment)", "values": [{"measurement": "stoichiometry N", "setting": "[1]", "result": 2}]}
{"substance": "SgEsaA_(332-725) (domain or fragment)", "values": [{"measurement": "stoichiometry N", "setting": "[2]", "result": 2}]}
